According to paper PMC2364237:

Molecular target: GST-Grb2(SH2) SH2 domain (UniProt P62993)
Assay: GST-Grb2(SH2) pull-down, anti-HA blot
Conditions: reference: HA-ShcWT; sites Y317

## HA-tagged Shc (52 kDa isoform) (from UniProt P29353-2) HA-ShcY317F
  binding against the reference: weaker
